Experiment [1] concerns the target T1, recombinant furin (rFurin) (Homo sapiens, UniProt P09958).
T1 construct: purchased NEB
The experiment can be described thus: In vitro furin cleavage assay. In kind it is biochemical. The conditions noted are these: 25 μM inhibitor, HT1080 cell lysate. How it is done:
(§1) CHO-FD11 cells stably expressing FGE-His6 or HT1080 cells were grown for 24 h, and cells and medium were harvested. For treatment with furin in vitro cell pellets were resuspended in HEPES pH 7.5 buffer containing 1 mM CaCl2 and 0.5% Triton X-100 and lysed in the absence of protease inhibitors by sonication on ice. Appropriate amounts of cell lysate and medium were incubated for 3 h at 25° C. with 4 units of furin (NEB) with or without 25 μM decanoyl-RVKR-CMK (Alexis biochemicals) as indicated in the figures. For in vivo treatment, HT1080 Tet-On cells were transiently transfected with pBI-FGE-HA and 4 h post-transfection, the medium was replenished with medium containing 20 ng/mL doxycycline and various concentrations of decanoyl-RVKR-CMK or only DMSO as a carrier control. The cells and medium were collected after 16 h of induction/treatment for further analysis. The samples were boiled in Laemmli buffer and analyzed by SDS-PAGE and western blotting with FGE antiserum.
In mammals, the proproteinconvertase family comprises nine enzymes that differ in their substrate specificity and tissue-specific expression and/or subcellular localization (17). Furin is the best characterized mammalian PC with a ubiquitous tissue distribution and it is the major convertase in the secretory pathway. To analyze the role of furin in the processing of FGE the inventors expressed FGE in cells that are deficient for furin. […] When cell homogenate and medium from CHO-FD11 cells stably expressing FGE-His were treated with commercially available recombinant furin (rFurin), almost half the amount of FGE was processed, as observed for both cells and medium (FIG. 12D). Using this in vitro furin cleavage assay, the inventors also examined whether endogenous intracellular FGE is susceptible to furin processing. Indeed, rFurin readily converted almost 90% of endogenous fl-FGE from untransfected HT1080 cells to the truncated form (FIG. 12E).
Although FGE is an ER resident protein, it lacks a canonical ER-retention motif. […] In this study, using the in vitro furin cleavage assay, the inventors assessed furin-mediated processing of the FGE-ERp44 covalent complex (FIG. 8). Homogenates, pre-treated with NEM (to prevent post-lysis disulfide shuffling), from HT1080 cells expressing either FGE alone or FGE plus myc-ERp44 together from a bi-directional promoter were incubated with rFurin and analyzed by SDS-PAGE under non-reducing conditions. Upon overexpression, intracellular FGE via its N-terminal cysteines (C50 and C52) forms covalently cross-bridged homodimers (FIG. 15, lane 1 and 2) and, additionally, FGE-ERp44 heterodimers when co-expressed with ERp44 (FIG. 15, lane 4 and 6) as previously observed (13). Removal of the N-terminus by furin cleavage should lead to a disappearance of the homo-/hetero-dimeric FGE forms, which serves as an indicator for accessibility of the furin cleavage motif in FGE.

For experiment [2], the system named is PCs (furin or furin-like convertases). The experiment in a line: Treatment of HT1080 Tet-On cells expressing FGE with RVKR-CMK inhibitor. It counts as cell-based, human. As to conditions: increasing concentrations of the inhibitor, 16 h. How it is done: as §1
In order to verify that the N-terminus of FGE containing the RYSR motif is subject to processing by furin or furin-like convertases, the inventors studied the secretion profile of FGE in cells in the presence of decanoyl-RVKR-ChloroMethylKetone (CMK), an inhibitor for PCs (FIG. 12A). […]

The star is where a group is joined. Decanoyl = CCCCCCCCCC(=O)*; CH2Cl = ClC*

T1 sequence (P09958 108-794): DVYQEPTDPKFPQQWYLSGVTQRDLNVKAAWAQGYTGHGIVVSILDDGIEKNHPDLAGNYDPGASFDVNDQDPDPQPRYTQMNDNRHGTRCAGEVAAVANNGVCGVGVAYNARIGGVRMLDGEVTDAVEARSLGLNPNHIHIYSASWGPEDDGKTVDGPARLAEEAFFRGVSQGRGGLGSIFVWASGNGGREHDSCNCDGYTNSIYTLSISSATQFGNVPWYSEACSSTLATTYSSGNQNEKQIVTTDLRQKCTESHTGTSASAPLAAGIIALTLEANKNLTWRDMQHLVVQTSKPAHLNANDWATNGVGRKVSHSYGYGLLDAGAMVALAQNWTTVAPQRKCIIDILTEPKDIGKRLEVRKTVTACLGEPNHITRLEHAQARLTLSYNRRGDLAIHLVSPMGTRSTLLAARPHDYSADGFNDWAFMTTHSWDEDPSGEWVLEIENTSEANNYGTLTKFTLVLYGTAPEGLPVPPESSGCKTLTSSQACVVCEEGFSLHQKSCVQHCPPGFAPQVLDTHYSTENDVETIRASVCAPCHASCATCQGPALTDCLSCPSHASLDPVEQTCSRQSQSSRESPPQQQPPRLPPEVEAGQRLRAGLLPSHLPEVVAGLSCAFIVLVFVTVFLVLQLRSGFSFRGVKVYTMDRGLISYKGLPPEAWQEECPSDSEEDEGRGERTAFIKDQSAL

Take “decanoyl-RVKR-ChloroMethylKetone (Decanoyl-RVKR-CH2Cl) [RVKR-CMK, reference compound]”: in experiment [1], the “inhibition of furin-mediated processing of FGE” value is given as “completely abrogated”. Further, in experiment [2], the “amount of the truncated form of FGE in the secretions” value is given as “decreased by the inhibitor in a concentration dependent manner”.

The record behind these values is patent US20150141617A1, “PRODUCTION AND PURIFICATION OF ACTIVE EUKARYOTIC FORMYLGLYCINEGENERATING ENZYME (FGE) VARIANTS” (Universität Bielefeld, priority 2013, published 2015).
